In the supplement of paper PMC11246515:
± gives the standard deviation of the averaged measurements.

Assay: total protein half-life in vivo (active degradation + dilution); higher = more stable protein
[1] = E. coli NCM3722 delta-clpP delta-lon delta-hslV, growth: N-lim chemostat, doubling time 6 h
[2] = wild type E. coli NCM3722, growth: C-lim chemostat, doubling time 12 h
[3] = wild type E. coli NCM3722, growth: N-lim chemostat, doubling time 6 h
[4] = wild type E. coli NCM3722, growth: P-lim chemostat, doubling time 12 h
[5] = E. coli NCM3722 delta-clpP, growth: N-lim chemostat, doubling time 6 h
[6] = E. coli NCM3722 delta-hslV, growth: N-lim chemostat, doubling time 6 h
[7] = E. coli NCM3722 delta-lon, growth: N-lim chemostat, doubling time 6 h
[8] = E. coli NCM3722 delta-smpB, growth: N-lim chemostat, doubling time 6 h
[9] = wild type E. coli NCM3722, growth: C-lim chemostat, doubling time 3 h
[10] = wild type E. coli NCM3722, growth: C-lim chemostat, doubling time 6 h
[11] = wild type E. coli NCM3722, growth: N-lim chemostat, doubling time 12 h
[12] = wild type E. coli NCM3722, growth: P-lim chemostat, doubling time 6 h

Sequence	total protein half-life in vivo [1] [h]	total protein half-life in vivo [2] [h]	total protein half-life in vivo [3] [h]	total protein half-life in vivo [4] [h]	total protein half-life in vivo [5] [h]	total protein half-life in vivo [6] [h]	total protein half-life in vivo [7] [h]	total protein half-life in vivo [8] [h]	total protein half-life in vivo [9] [h]	total protein half-life in vivo [10] [h]	total protein half-life in vivo [11] [h]	total protein half-life in vivo [12] [h]
MQFDYIIIGAGSAGNVLATRLTEDPNTSVLLLEAGGPDYRFDFRTQMPAALAFPLQGKRYNWAYETEPEPFMNNRRMECGRGKGLGGSSLINGMCYIRGNALDLDNWAQEPGLENWSYLDCLPYYRKAETRDMGENDYHGGDGPVSVTTSKPGVNPLFEAMIEAGVQAGYPRTDDLNGYQQEGFGPMDRTVTPQGRRASTARGYLDQAKSRPNLTIRTHAMTDHIIFDGKRAVGVEWLEGDSTIPTRATANKEVLLCAGAIASPQILQRSGVGNAELLAEFDIPLVHELPGVGENLQDHLEMYLQYECKEPVSLYPALQWWNQPKIGAEWLFGGTGVGASNHFEAGGFIRSREEFAWPNIQYHFLPVAINYNGSNAVKEHGFQCHVGSMRSPSRGHVRIKSRDPHQHPAILFNYMSHEQDWQEFRDAIRITREIMHQPALDQYRGREISPGVECQTDEQLDEFVRNHAETAFHPCGTCKMGYDEMSVVDGEGRVHGLEGLRVVDASIMPQIITGNLNATTIMIGEKIADMIRGQEALPRSTAGYFVANGMPVRAKK	5.76 ± 0.8	> 16	2.75	4.08								
MQFEKMITEGSNTASAEIDRVSTLEMCRIINDEDKTVPLAVERVLPDIAAAIDVIHAQVSGGGRLIYLGAGTSGRLGILDASECPPTYGVKPGLVVGLIAGGEYAIQHAVEGAEDSREGGVNDLKNINLTAQDVVVGIAASGRTPYVIAGLEYARQLGCRTVGISCNPGSAVSTTAEFAITPIVGAEVVTGSSRMKAGTAQKLVLNMLSTGLMIKSGKVFGNLMVDVVATNEKLHVRQVNIVKNATGCSAEQAEAALIACERNCKTAIVMVLKNLDAAEAKKRLDQHGGFIRQVLDKE	5.64 ± 0.068	8.41 ± 0.19	4.37 ± 0.25	9.65 ± 0.26	4.82 ± 0.37	5.96 ± 1.8	4.88 ± 0.37	4.08 ± 0.35	3.04 ± 0.084	5.28 ± 0.059	8.74 ± 0.62	5.92 ± 1.1
MQFSTTPTLEGQTIVEYCGVVTGEAILGANIFRDFFAGIRDIVGGRSGAYEKELRKAREIAFEELGSQARALGADAVVGIDIDYETVGQNGSMLMVSVSGTAVKTRR [P0A8C1]	4.49 ± 0.27	10.2 ± 3.2	3.84 ± 0.47	12.2 ± 0.14	4.01 ± 0.34	3.9 ± 0.47	4.39 ± 0.13	4.26 ± 0.15	2.918 ± 0.013	5.49 ± 0.17	6.45 ± 0.22	5.53 ± 0.24
MQILKVIGLLMEYPDELLWECKEDALALIRRDAPMLTDFTHNLLNAPLLDKQAEWCEVFDRGRTTSLLLFEHVHAESRDRGQAMVDLLAEYEKVGLQLDCRELPDYLPLYLEYLSVLPDDQAKEGLLNVAPILALLGGRLKQREAPWYALFDALLQLAGSSLSSDSVTKQVNSEERDDTRQALDAVWEEEQVKFIEDNATACDSSPLNQYQRRFSQDVAPQYVDISAGGGK	3.93 ± 0.43	1.78	0.752 ± 0.1	1.94 ± 0.61	1.45	0.577	0.917	0.553		1.45 ± 0.12	0.75	
MQKKSIYVAYTGGTIGMQRSEQGYIPVSGHLQRQLALMPEFHRPEMPDFTIHEYTPLMDSSDMTPEDWQHIAEDIKAHYDDYDGFVILHGTDTMAYTASALSFMLENLGKPVIVTGSQIPLAELRSDGQINLLNALYVAANYPINEVTLFFNNRLYRGNRTTKAHADGFDAFASPNLPPLLEAGIHIRRLNTPPAPHGEGELIVHPITPQPIGVVTIYPGISADVVRNFLRQPVKALILRSYGVGNAPQNKAFLQELQEASDRGIVVVNLTQCMSGKVNMGGYATGNALAHAGVIGGADMTVEATLTKLHYLLSQELDTETIRKAMSQNLRGELTPDD [P0A962]	5.54 ± 0.6	12 ± 1.2	5.74 ± 0.28	11.5 ± 1.4	5.31 ± 0.36	6.03 ± 0.21	5.69 ± 0.17	5 ± 0.11	3.18 ± 0.034	5.81 ± 0.83	10.9 ± 0.4	5.81 ± 0.6
MQKVKLPLTLDPVRTAQKRLDYQGIYTPDQVERVAESVVSVDSDVECSMSFAIDNQRLAVLNGDAKVTVTLECQRCGKPFTHQVYTTYCFSPVRSDEQAEALPEAYEPIEVNEFGEIDLLAMVEDEIILALPVVPVHDSEHCEVSEADMVFGELPEEAQKPNPFAVLASLKRK [P0AB28]	5.71 ± 1.6	7.12 ± 0.54	3.66 ± 0.32	8.64 ± 0.14	5.08 ± 1.3	3.49 ± 0.1	3.58 ± 0.24	3.21 ± 0.78	1.93 ± 0.19	4.48 ± 0.12	5.22 ± 0.26	4.32 ± 0.3
MQLRKPATAILALALSAGLAQADDAAPAAGSTLDKIAKNGVIVVGHRESSVPFSYYDNQQKVVGYSQDYSNAIVEAVKKKLNKPDLQVKLIPITSQNRIPLLQNGTFDFECGSTTNNVERQKQAAFSDTIFVVGTRLLTKKGGDIKDFANLKDKAVVVTSGTTSEVLLNKLNEEQKMNMRIISAKDHGDSFRTLESGRAVAFMMDDALLAGERAKAKKPDNWEIVGKPQSQEAYGCMLRKDDPQFKKLMDDTIAQVQTSGEAEKWFDKWFKNPIPPKNLNMNFELSDEMKALFKEPNDKALN	6.32 ± 0.97	11.3 ± 0.22	5.9 ± 0.54	13.2 ± 0.35	6.45 ± 1.6	6.8 ± 0.39	7.14 ± 0.3	6.02 ± 0.43	3.26 ± 0.14	6.76 ± 0.34	14.1 ± 0.48	5.81 ± 0.41
